The values below are quoted from earlier work in publication PMC10953113 (Biomedicine & pharmacotherapy = Biomedecine & …, 2024).

For the data set the following is noted: no reference given.

As to Arginine vasopressin [AVP], the “half-life (T1/2)” value is recorded as ~ 10 min.
